In paper PMC4175578:

Biological target: N-terminal domain (residues 1-79) of HCV glycoprotein E1 ectodomain, N43Q (Hepatitis C virus, strain H77)
Assay: SEC-MALS; analytical Superdex S200 10/30 with online static light scattering; protein not deglycosylated, ~4.2 mg/ml

Substance: N-terminal domain (residues 1-79) of HCV glycoprotein E1 ectodomain, N43Q (domain or fragment)
- stoichiometry N: 2
